We go through one protein from ChEMBL document CHEMBL1124124, “Synthesis and interaction with uridine phosphorylase of 5'-deoxy-4',5-difluorouridine, a new prodrug of 5-fluorouracil” (J Med Chem, 1988).

Data set [1] has as its target Uridine phosphorylase 1 (Mus musculus) (UniProt P52624). The data set can be described thus: Kinetic constant for interaction with Urd phosphorylase from Lewis lung carcinoma. The following applies: mouse.
Test in data set [2]: as above

Chain of Uridine phosphorylase 1 (Mus musculus) (P52624 whole entry, looked up): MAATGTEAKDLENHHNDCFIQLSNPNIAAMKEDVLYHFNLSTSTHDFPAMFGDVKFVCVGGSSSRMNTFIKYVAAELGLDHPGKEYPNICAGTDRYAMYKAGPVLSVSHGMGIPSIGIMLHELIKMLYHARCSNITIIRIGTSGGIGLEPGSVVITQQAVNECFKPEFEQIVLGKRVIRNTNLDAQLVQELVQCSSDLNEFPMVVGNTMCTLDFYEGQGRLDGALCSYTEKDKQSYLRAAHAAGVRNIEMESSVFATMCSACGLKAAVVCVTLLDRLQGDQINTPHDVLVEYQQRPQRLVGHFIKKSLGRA

B1: Uridine phosphorylase 1 (Homo sapiens), Q16831 (protein)
chain: MAATGANAEKAESHNDCPVRLLNPNIAKMKEDILYHFNLTTSRHNFPALFGDVKFVCVGGSPSRMKAFIRCVGAELGLDCPGRDYPNICAGTDRYAMYKVGPVLSVSHGMGIPSISIMLHELIKLLYYARCSNVTIIRIGTSGGIGLEPGTVVITEQAVDTCFKAEFEQIVLGKRVIRKTDLNKKLVQELLLCSAELSEFTTVVGNTMCTLDFYEGQGRLDGALCSYTEKDKQAYLEAAYAAGVRNIEMESSVFAAMCSACGLQAAVVCVTLLNRLEGDQISSPRNVLSEYQQRPQRLVSYFIKKKLSKA
As usually defined, the Km is the concentration of substrate that gives half-maximal velocity. In the case of B1, the Km was 6 mM in data set [1] and 0.6 mM in data set [2].
